Series [1] relates to T1, Nc1nc2c(ncn2[C@@H]2O[C@H](COP(=O)(O)OP(=O)(O)OP(=O)(O)O)[C@@H](O)[C@H]2O)c(=O)[nH]1.
T1 construct: Roc-COR-kinase fragment, AA 1334-2147, N-terminal His-tag, expressed in Sf9 cells, Ni-NTA purified
Briefly: multiple turnover radioactive charcoal GTPase assay, Michaelis-Menten fit. The note with it: 100 nM protein, 50 mM NaCl, 20 mM Tris/HCl, 10 mM MgCl2, 1 mM DTT, 0.5 mg/ml BSA, pH 7.5, 25°C, labelled compound (gamma-32P). The class given is biochemical, C. tepidum.

For series [2] the test system is unchanged. The series is described as above. The series is classed as biochemical, Chlorobaculum tepidum. Particulars: 100 nM protein, 50 mM NaCl, 20 mM Tris/HCl, 10 mM MgCl2, 1 mM DTT, 0.5 mg/ml BSA, pH 7.5, 25°C, labelled compound (gamma-32P).

From article PMC4721548, “Conformational heterogeneity of the Roc domains in C. tepidum Roc–COR and implications for human LRRK2 Parkinson mutations” (Bioscience Reports, 2015) come the findings set out here.

Sequence of LRRK2 Roc-COR-kinase fragment (Homo sapiens; R1441C) (chain, as listed by the source R1441C): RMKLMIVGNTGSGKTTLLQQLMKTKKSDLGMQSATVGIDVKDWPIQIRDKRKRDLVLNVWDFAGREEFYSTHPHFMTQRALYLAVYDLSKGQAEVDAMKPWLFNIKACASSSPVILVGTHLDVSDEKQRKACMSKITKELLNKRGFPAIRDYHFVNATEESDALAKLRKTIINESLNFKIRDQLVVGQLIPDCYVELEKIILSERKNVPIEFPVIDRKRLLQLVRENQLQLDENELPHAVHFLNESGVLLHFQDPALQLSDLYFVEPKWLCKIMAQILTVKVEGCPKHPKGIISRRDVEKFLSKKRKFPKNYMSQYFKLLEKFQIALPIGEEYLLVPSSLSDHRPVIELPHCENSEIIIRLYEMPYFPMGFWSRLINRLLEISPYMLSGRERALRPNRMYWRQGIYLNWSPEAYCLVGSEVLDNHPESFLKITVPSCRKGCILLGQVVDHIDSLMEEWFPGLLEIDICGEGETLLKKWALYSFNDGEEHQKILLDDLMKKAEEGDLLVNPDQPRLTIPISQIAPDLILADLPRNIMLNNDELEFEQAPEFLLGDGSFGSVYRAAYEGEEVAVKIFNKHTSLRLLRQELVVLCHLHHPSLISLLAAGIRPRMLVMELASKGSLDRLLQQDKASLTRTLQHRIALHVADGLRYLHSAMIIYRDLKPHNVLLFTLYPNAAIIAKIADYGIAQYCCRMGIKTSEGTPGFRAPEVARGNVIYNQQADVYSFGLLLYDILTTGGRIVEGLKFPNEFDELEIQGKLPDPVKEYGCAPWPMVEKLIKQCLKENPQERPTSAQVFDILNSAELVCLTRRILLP
Sequence of LRRK2 Roc-COR-kinase fragment (Homo sapiens) (chain, as listed by the source): as the sequence (chain, as listed by the source R1441C) above, with C108R counted along it

For “LRRK2 Roc-COR-kinase fragment (Homo sapiens)”, in series [1], the Km came out at 343 µM and the kcat stood at 0.013 s⁻¹.
With “LRRK2 Roc-COR-kinase fragment (Homo sapiens; R1441C)”, in series [2], the Km worked out at 541 µM and the turnover number (kcat) is 0.00617 s⁻¹.
